Measured values taken from patent US20260103541A1 (UNIVERSIT T Z RICH, published 2026).

T1: human FAP (fibroblast activation protein) on HT1080hFAP cells (human, UniProt Q12884 1-760)
T1 construct: also called seprase
T1 sequence: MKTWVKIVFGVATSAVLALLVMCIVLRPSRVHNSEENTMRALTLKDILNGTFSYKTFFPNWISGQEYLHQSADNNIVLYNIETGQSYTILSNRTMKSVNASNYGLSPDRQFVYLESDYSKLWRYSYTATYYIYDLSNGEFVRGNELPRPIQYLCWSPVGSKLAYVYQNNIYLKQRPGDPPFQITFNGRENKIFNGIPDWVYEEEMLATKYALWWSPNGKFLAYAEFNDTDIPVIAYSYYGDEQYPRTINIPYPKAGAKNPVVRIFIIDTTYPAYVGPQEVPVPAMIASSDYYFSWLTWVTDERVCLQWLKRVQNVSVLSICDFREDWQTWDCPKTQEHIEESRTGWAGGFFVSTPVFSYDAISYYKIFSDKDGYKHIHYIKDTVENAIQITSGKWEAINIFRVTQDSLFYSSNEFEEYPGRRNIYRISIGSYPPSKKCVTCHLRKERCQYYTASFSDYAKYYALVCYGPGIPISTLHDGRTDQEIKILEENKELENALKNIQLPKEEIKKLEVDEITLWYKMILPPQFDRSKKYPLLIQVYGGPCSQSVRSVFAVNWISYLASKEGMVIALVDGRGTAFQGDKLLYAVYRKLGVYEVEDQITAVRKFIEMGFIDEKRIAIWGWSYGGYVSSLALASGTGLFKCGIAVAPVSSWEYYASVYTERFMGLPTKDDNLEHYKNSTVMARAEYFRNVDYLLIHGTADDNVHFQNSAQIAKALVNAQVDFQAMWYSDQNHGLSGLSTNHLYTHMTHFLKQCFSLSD


Molecular target: T1, human FAP (fibroblast activation …)
Test: flow cytometry cell-based binding assay, HT1080hFAP against FAP-negative HT1080 cells

Binder	binding result
DARPin #23 (designed binder, also called designed ankyrin repeat domain #23; not shown: N terminal His6 tag; C terminal FLAG tag) DLGKKLLEAARYGQDDEVRILMANGADVNAEDQHGHTPLHLAAFSGHLEIVEVLLKTGADVNANDINGVTPLHLAANVGHLEIVEVLLKHGADVNAQDKFGKTPFDLAAYLGNEDIAEVLQ	binds
DARPin #1 (designed binder, also called designed ankyrin repeat domain #1; not shown: N terminal His6 tag; C terminal FLAG tag) DLGKKLLDAARAGQDDEVRILMANGADVNAMDVWGVTPLHLAAWHRHLEIVEVLLKTGADVNANDDSGFTPLHLAAHWGHLEIVEVLLKHGADVNAQDKFGKTPFDLAIDNGNEDIAEVLQ	binds
DARPin #11 (designed binder, also called designed ankyrin repeat domain #11; not shown: N terminal His6 tag; C terminal FLAG tag) DLVKKLLEAARAGQDDEVRILMANGADVNANDHFGITPLHLTAWWGHLEIVEVLLKAGADVNAVDHWGTTPLHLAAHQGHLEIVEVLLKHGADVNAQDKFGKTAFDISIDNGNEDIAEVLQ	binds
DARPin #15 (designed binder, also called designed ankyrin repeat domain #15; not shown: N terminal His6 tag; C terminal FLAG tag) DLGKKLLEAARAGQDDEVRILMANGADVNAMDMWGITPLHLAAWAGHLEIVEVLLKTGADVNAFDQHGNTPLHLAAYRGHLEIVEVLLKTGADVNAHDNWGTTPLHLTAHNGHLEIVEVLLKAGADVNAQDKFGKTPFDLAIDNGNEDIAEVLQ	binds
DARPin #21 (designed binder, also called designed ankyrin repeat domain #21; not shown: N terminal His6 tag; C terminal FLAG tag) DLGKKLLEAAELGQLDEVRILMANGADVNAMDQHGITPLHLAAWHGHLEIVEVLLKTGADVNAKDQDGSTPLHLAAYLGHLEIVEVLLKTGADVNAFDKFGNTPLHLAAHRGHLEIVEVLLKHGADVNAQDKFGKTPFDLAIDNGNEDIAEVLQ	binds
DARPin #22 (designed binder, also called designed ankyrin repeat domain #22; not shown: N terminal His6 tag; C terminal FLAG tag) DLGKKLLEAARAGQDDEVRILMANGADVNASDWWGITPLHLAAYWGHLEIVEVLLKTGADVNAQDNQGITPLHLAATLGHLEIVEVLLKHGADVNAQDKFGKTPFDLAIDNGNEDIAEVLQ	binds
DARPin #24 (designed binder, also called designed ankyrin repeat domain #24; not shown: N terminal His6 tag; C terminal FLAG tag) DLGKKLLEAARAGQDDEVRILMANGADVNAIDVHGITPLHLAAYWGHLEIVEVLLKAGADVNAEDESGHTPLHLAAHWGHLEIVEVLLKHGADVNAQDKFGKTPFDLAIDNGNEDIAEVLQ	binds
DARPin #26 (designed binder, also called designed ankyrin repeat domain #26; not shown: N terminal His6 tag; C terminal FLAG tag) DLGKKLLEAARAGQDDEVRILMANGADVNAIDWWGITPLHLAALFGHLEIVEVLLKTGADVNAEDRLGFTPLHLAATTGHLEIVEVLLKAGADVNAQDKFGKTPFDLAIDNGNEDIAEVLQ	binds
DARPin #8 (designed binder, also called designed ankyrin repeat domain #8; not shown: N terminal His6 tag; C terminal FLAG tag) DLGKKLLEAARAGQDDEVRILMANGADVNAADEYGITPLHLAAFFGHLEIVEVLLKTGADVNADDAWGSTPLHLAAYKGHLEIVEVLLKHGADVNAQDKFGKTPFDLAIDNGNEDIAEVLQ	binds
DARPin #12 (designed binder, also called designed ankyrin repeat domain #12; not shown: N terminal His6 tag; C terminal FLAG tag) DLGKKLLEAARAGQDDEVRILMANGADVNAQDQRGRTPLHLAAAWGHLEIVEVLLKTGADVNAADDMGHTPLHLAAAFGHLEIVEVLLKHGADVNAQDKFGKTPFDLAIDNGNEDIAEVLQ	binds
DARPin #16 (designed binder, also called designed ankyrin repeat domain #16; not shown: N terminal His6 tag; C terminal FLAG tag) DLGKKLLEAARAGQDDEVRILMANGADVNAKDRYGITPLHLAAYWGHLEIVEVLLKAGSDVNALDYHGSTPLHLAAWFGHLEIVEVLLKHGADVNAQDKFGKTPFDLAIDNGNEDIAEVLQ	binds
DARPin #13 (designed binder, also called designed ankyrin repeat domain #13; not shown: N terminal His6 tag; C terminal FLAG tag) DLGKKLLEAARAGQDDEVRILMANGADVNATDQHGRTPLHLAAHTGHLEIVEVLLKTGADVNAQDHQGITPLHLAAFKGHLEIVEVLLKTGADVNAQDNWGYTPLHLAAARGHLEIVEVLLKAGADVNAQDKFGKTPFDLAIDNGNEDIAEVLQ	binds
DARPin #10 (designed binder, also called designed ankyrin repeat domain #10; not shown: N terminal His6 tag; C terminal FLAG tag) DLGKKLLEAARAGQDDEVRILMANGADVNAADDQGRTPLHLAAMHGHLEIVEVLLKTGADVNANDWFGITPLHLAAWWGHLEIVEVLLKAGADVNAVDHSGDTPLHLAAHLGHLEIVEVLLKHGADVNAQDKFGKTPFDLAIDNGNEDIAEVLQ	binds
DARPin #17 (designed binder, also called designed ankyrin repeat domain #17; not shown: N terminal His6 tag; C terminal FLAG tag) DLGKKLLEAARAGQDDEVRILMANGADVNAADNYGITPLHLAAYRGHLEIVEVLLKTGADVNAHDNVGNTPLHLAAAKGHLEIVEVLLKAGADVNADDVQGVTPLHLAASQGHLEIVEVLLKHGADVNAQDKFGKTPFDLAIDNGNEDIAEVLQ	binds
DARPin #5 (designed binder, also called designed ankyrin repeat domain #5; not shown: N terminal His6 tag; C terminal FLAG tag) DLGKKLLEAARAGQDDEVRILMANGADVNAEDHVGRTPLHLAAAHGHLEIVEVLLKTGADVNARDRHGITPLHLAAWSGHLEIVEVLLKTGADVNASDKQGNTPLHLAAYRGHLEIVEVLLEAGADVNAQDKFGKTPFDLAIDNGNEDIAEVLQ	binds
DARPin #4 (designed binder, also called designed ankyrin repeat domain #4; not shown: N terminal His6 tag; C terminal FLAG tag) DLGKKLLDAASVGQDDEVRILMANGADVNASDTYGRTPLHVAAQHGHLEIVDVLLAHGADVNASNAYGSTPLHVAAWTGHLEIVDVLLAYGADVNASNSQGNTPLHAAAATGHLEIVEVLLKHGADVNAQDKFGKTPFDLAIDNGNEDIAEVLQ	binds
DARPin #20 (designed binder, also called designed ankyrin repeat domain #20; not shown: N terminal His6 tag; C terminal FLAG tag) DLGKKLLEAARAGQDDEVRILMANGADVNAVDYQGRTPLHLAAQYGHLEIVEVLLKTGADVNAQDHHGITPLHLAAFWGHLEIVEVLLKAGADVNAKDDQGNTPLHLAAWRGHLEIVEVLLKHGADVNAQDKFGKTPFDLAIDNGNEDIAEVLQ	binds
DARPin #25 (designed binder, also called designed ankyrin repeat domain #25; not shown: N terminal His6 tag; C terminal FLAG tag) DLGKKLLEAARAGQDDEVRILMANGADVNATDWQGSTPLHLAAQHGHLEIVEVLLKTGADVNAEDQNGITPLHLAAYWGHLEIVEVLLKAGADVNAVDRQGNTPLHLAAVWGHLEIVEVLLKHGADVNAQDKFGKTPFDLAIDNGNEDIAEVLQ	binds
DARPin #3 (designed binder, also called designed ankyrin repeat domain #3; not shown: N terminal His6 tag; C terminal FLAG tag) DLGKKLLEAARAGQDDEVRILMANGADVNAQDMTGKTPLHLAAREGHLEIVEVLLKTGADVNAKDLWGVTPLHLAAFSGHLEIVEVLLKTGADVNAWDWEGKTPLHLAAVKGHPEIVEVLLKHGADVNAQDKFGKTPFDLAIDNGNEDIAEVLQ	binds
